Measured values from patent US20150252107A1, “APLNR Modulators and Uses Thereof” (Regeneron Pharmaceuticals, Inc., priority 2013, published 2015).
No end group written: not given here.

T1: hAPLNR (Homo sapiens, UniProt P35414)
T1 construct: expressed in transfected cells
T1 sequence (P35414 1-380): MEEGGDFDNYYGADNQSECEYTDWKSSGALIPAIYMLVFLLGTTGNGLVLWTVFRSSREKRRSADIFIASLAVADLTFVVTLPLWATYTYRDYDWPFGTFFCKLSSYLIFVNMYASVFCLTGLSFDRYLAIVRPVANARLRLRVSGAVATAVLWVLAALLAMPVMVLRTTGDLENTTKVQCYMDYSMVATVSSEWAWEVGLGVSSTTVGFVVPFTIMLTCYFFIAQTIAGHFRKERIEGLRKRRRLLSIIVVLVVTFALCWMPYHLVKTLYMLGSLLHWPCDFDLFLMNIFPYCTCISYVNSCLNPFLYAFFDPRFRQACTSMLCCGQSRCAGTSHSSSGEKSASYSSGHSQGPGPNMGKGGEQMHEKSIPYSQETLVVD


Assays:
hAPLNR [1] = target: T1, hAPLNR; test: CRE assay of modified apelin peptides in HEK293/CRE-luc/hAPLNR cells; type: cell-based; conditions: Table 9; 5 μM forskolin
Method: After 5 hours of incubation at 37° C. in 5% CO2, luminescence was measured following the addition of One Glo reagent (Promega, #E6051) using a Victor X instrument (Perkin Elmer). The data were fit by nonlinear regression to a 4-parameter logistic equation with Prism 5 software (GraphPad).

hAPLNR [2] = target: T1, hAPLNR; test: cyclic AMP (CRE-luciferase) assay, inhibition of hAPLNR in the presence of 100 pM Apelin; type: cell-based; conditions: Tables 6C and 6D
Method: (§1) The resulting cell line, HEK293/CRE-luc/hAPLNR, was maintained in DMEM containing 10% FBS, NEAA, penicillin/streptomycin, and 100 μg/mL Hygromycin B.
(§2) Testing of antibodies included a no antibody control.
(§3) The results of all assays were analyzed using nonlinear regression (4-parameter logistics) within Prism 5 software (GraphPad).

hAPLNR [3] = target: T1, hAPLNR; test: cyclic AMP (CRE-luciferase) assay, activation of hAPLNR in HEK293/CRE-luc/hAPLNR cells; type: cell-based; conditions: without Apelin; for % Activation at 100 nM mAb (at 5 uM Forskolin) / % Activation at 100 nM mAb (at 10 uM Forskolin): Table 6A, % of maximum Apelin activation
Method: The ability of anti-APLNR antibodies to activate hAPLNR-mediated cell signaling was measured using a cyclic AMP assay. The hAPLNR is a 7-transmembrane G-protein coupled receptor (GPCR).
as §1, §2, §3

HEK293 parental cells = test: FACS binding to HEK293 parental cells; conditions: 10 μg/mL antibody
Method: Binding ratios for human APLNR binding to purified anti-APLNR monoclonal antibodies were determined by a fluorescence-activated cell sorting (FACS) binding assay. […] The resulting stable cell lines, HEK293/CRE-luc/hAPLNR and HEK293/CRE-luc/MfAPLNR, were maintained in DMEM containing 10% FBS, NEAA, and penicillin/streptomycin with either 100 μg/mL Hygromycin B for hAPLNR cells or 500 μg/mL G418 for MfAPLNR cells.
For the FACS analysis, HEK293 parental, HEK293/CRE-luc/hAPLNR, and, HEK293/CRE-luc/mfAPLNR cells were dissociated using Enzyme Free Dissociation reagent (#S-004, Millipore, Billerica, Mass., USA) and 10^6 cells/well were plated onto 96-well v-bottom plates in PBS containing 1% FBS. […] Cells were then filtered and analyzed on Accuri Flow Cytometer (BD Biosciences, San Jose, Calif., USA). Unstained and secondary antibody alone controls were also tested for binding to all cell lines. […] Geometric mean (Geom. mean) of fluorescence for each antibody was then normalized to geometric mean of unstained cells to obtain relative binding of antibody (binding ratios) per each cell type: HEK293 (parental), HEK293/CRE-luc/hAPLNR and HEK293/CRE-luc/MfAPLNR.

Molecule | % Activation at 100 nM mAb (at 5 uM Forskolin) (hAPLNR [3]) | % Activation at 100 nM mAb (at 10 uM Forskolin) (hAPLNR [3]) | inhibition (maximum blockade) of 100ρM Apelin activation (hAPLNR [2]) | Binding Ratio of Geom. Mean to Unstained Cells, HEK293 Parental (HEK293 parental cells) | further results
PRLSHKGPM [Apelin67-75] |  |  |  |  | EC50 (hAPLNR [1]): 374 nM
H4H9103P: anti-APLNR antibody, HCVR/LCVR SEQ ID NOs 162/170, human IgG4 Fc (antibody, V domains shown, human IgG4 Fc) VH: EVQLVESGGGLVQPGRSLRLSCAASGFTFDDYAMHWVRQVPGKGLEWVSGITWNSGDIGYADSVKGRFTISRDNAKNSLYLQMNSLRAEDTALYYCTKDKDSSGYYGIDVWGQGTTVTVSS VL: DIQMTQSPSSVSASVGDRVTITCRASQGIRTWLAWYQQKPGKAPKLLIYAASSLQSGVPSRFSGSESGTDFTLTISSLQPEDFATYYCQQANSFPFTFGPGTKVDIK | No Activation |  | did not demonstrate any measurable blockade |  | 
H4H9101P: anti-APLNR antibody, HCVR/LCVR SEQ ID NOs 146/154, human IgG4 Fc (antibody, V domains shown, human IgG4 Fc) VH: QVQLVQSGAEVKKPGASVEVSCKASGYTFTDYYIHWIRQAPGQGLEWMGWINPDSGRTNYAQKFQVRVTMTRDTSITTAYMELNRLKSDDTAVYYCARGPLRGYSGYDFFDYWGQGTLVTVSS VL: DIQLTQSPSFLSASVGDRVTITCWASQGISSYLAWYQQKPGKAPKLLIYAASTLQSGVPSRFSGSGSGTEFTLTISSLQPEDFASYFCQQLNSNPRTFGQGTKVEIK | No Activation |  | did not demonstrate any measurable blockade |  | 
H1M9207N: anti-APLNR antibody, HCVR/LCVR SEQ ID NOs 2/10, mouse IgG1 Fc (antibody, V domains shown, mouse IgG1 Fc) VH: EVQLVESGGGLAQPGGSLRLSCAASGFTFSNYWMSWVRQAPGKGLEWVANIKQDGSEKYYLESVKGRFTISRDNAKNLLYLQMNSLRAEDTAVFYCARPGLLRFLEPGRRYYSGMNVWGQGTTVTVSS VL: DIQLTQSPSFLSASVGDRVTITCWASQGIRSYLAWYQQKPGKAPKLLIYAASTLQSGVPSRFSGSGSGTEFTLTISSLQPEDFATYYCQQFNSYPWTFGQGTKVEIK |  | No Activation |  | 4 | 
H2aM9227N: anti-APLNR antibody, HCVR/LCVR SEQ ID NOs 50/58, mouse IgG2a Fc (antibody, V domains shown, mouse IgG2a Fc) VH: EVQLVESGGGLVQPGGSLRLSCAASGFTFSSFWMSWVRQVPGKGLEWVANIKQDGSEKYYVDSVKGRFTISRDNAKNSLYLQMNSLRAEDTAVYYCARDRFGYSFYDKGVRYYYGMDVWGQGTTVTVSS VL: DIQMTQSPSSLSVSVGDRVTITCRASQGIRNDLGWYQQKPGKAPKRLIYATSSLQSGVPSRFSGSGSGTEFTLTISGLQPEDFATYYCLQHNSYPRTFGQGTKVEIK |  | 12% |  | 4 | activation of hAPLNR, % of maximum Apelin activation at 100 nM, the highest antibody dose tested (hAPLNR [3]; text on Table 6A): 12%
H2aM9230N: anti-APLNR antibody, HCVR/LCVR SEQ ID NOs 82/90, mouse IgG2a Fc (antibody, V domains shown, mouse IgG2a Fc) VH: EVQLVESGGGLVQPGGSLRLSCAASGFTFSSFWMSWVRQVPGKGLQWVANIKQDGSEKYYVDSVKGRFTISRDNAKNSLYLQMNSLRAEDTAVYYCARDRFGYSVYDKGVRYYYGMDVWGQGTTVTVSS VL: DIQMTQSPSSLSVSVGDRVTITCRASQGIRNDLGWYQQKPGKAPKRLIYAASSLQSGVPSRFSGSGSGTEFTLTISGLQSEDFATYYCLQHKSYPRTFGQGTKVEIK |  | No Activation |  | 3 | 
H2aM9228N: anti-APLNR antibody, HCVR/LCVR SEQ ID NOs 66/74, mouse IgG2a Fc (antibody, V domains shown, mouse IgG2a Fc) VH: EVQLVESGGGLVQPGGSLRLSCAASGFTFSNYWMSWVRLAPGKGLEWVANIKQDGSERYYVGSVKGRFTISRGDAKNSLYLQMNSLRAEDTAVYYCARDRFGYSAFDKGVRYYYGMDVWGQGTTVTVSS VL: DIQMTQSPSSLSASVGDRVTITCRASQGIRNDLGWYQQKPGKAPKRLIYAASSLQSGVPSRFSGSGSGTEFTLTISSLQPEDFATYYCLQHNSYPRTFGQGTKVEIK |  | No Activation |  | 3 | 
H2aM9222N: anti-APLNR antibody, HCVR/LCVR SEQ ID NOs 34/42, mouse IgG2a Fc (antibody, V domains shown, mouse IgG2a Fc) VH: EVQLVESGGGLVQPGGSLRLSCAASGFTFSNYWMSWVRQAPGKGLEWVANIKQDGSERYYVGSVKGRFTISRGDAENSLYLQMNSLRAEDTAVYYCARDRFGYSAYDKGVRYYYGMDVWGQGTTVTVSS VL: DIQMTQSPSSLSASVGDRVTITCRASQGIRNDLGWYQQKPGKAPKRLIYAASSLQSGVPSRFSGSGSGTEFTLTISSLQPEDFATYYCLQHNSYPRTFGQGTKVEIK |  | No Activation |  | 2 | 

Further lines, with some results ahead:

% Activation at 100 nM mAb (at 5 uM Forskolin) (hAPLNR [3]) | % Activation at 100 nM mAb (at 10 uM Forskolin) (hAPLNR [3]) | Molecule | inhibition (maximum blockade) of 100ρM Apelin activation (hAPLNR [2]) | Binding Ratio of Geom. Mean to Unstained Cells, HEK293 Parental (HEK293 parental cells) | further results
No Activation |  | H4H9112P: anti-APLNR antibody, HCVR/LCVR SEQ ID NOs 194/202, human IgG4 Fc (antibody, V domains shown, human IgG4 Fc) VH: QVQLVQSGAEVKKPGASVEVSCKASGYTFTDYYIHWIRQAPGQGLEWMGWINPDSGRTNYAQKFQVRVTMTRDTSITTAYMELNRLKSDDTAVYYCARGPLRGYSGYDFFDYWGQGTLVTVSS VL: DIQMTQSPSSLSAFVGDRVTITCRASQSISSYLNWYQQKPGKAPKLLIYTASTLQRGVPSRFRGSGSGTDFTLTISSLQPEDFATYYCHQTYSIPITFGQGTRLEIK | did not demonstrate any measurable blockade |  | 
No Activation |  | H4H9113P: anti-APLNR antibody, HCVR/LCVR SEQ ID NOs 210/218, human IgG4 Fc (antibody, V domains shown, human IgG4 Fc) VH: QVQLVQSGAEVKKPGASVEVSCKASGYTFTDYYIHWIRQAPGQGLEWMGWINPDSGRTNYAQKFQVRVTMTRDTSITTAYMELNRLKSDDTAVYYCARGPLRGYSGYDFFDYWGQGTLVTVSS VL: DIQMTQSPSSLSASVGDRVTITCRASQGIRNDLGWYQQKPGKAPNRLIYAASSLQSGVPSRFSGSGSGTEFTLTISSLHPEDFATYSCLQHNSFPLTFGGGTKVEIK | did not demonstrate any measurable blockade |  | 
No Activation |  | H4H9104P: anti-APLNR antibody, HCVR/LCVR SEQ ID NOs 178/186, human IgG4 Fc (antibody, V domains shown, human IgG4 Fc) VH: QVQLVESGGDLVKPGGSLRLSCAASGFTFSDYYMNWIRQAPGKGLEWVSYISSSGSTIHYADSVKGRFTISRDNAKNLVYLRMNSLRAEDTAVYFCAREREVHDYSDPYFFFYGMDVWGQGTTVTVSS VL: DIQMTQSPSSVSASVGDRVTITCRASQDVSSWLAWYQHKPGKAPKLLIFAASSLQSGVPSRFSGSGSGTDFTLTISSLQSEDFATYYCQQANSFPLTFGGGTKVEIK | did not demonstrate any measurable blockade |  | 
